The values that follow are results of earlier work, collected in publication PMC7642319.

For the data set, the target named is NbpSH3 SH3 (Saccharomyces cerevisiae) (UniProt Q12163).
Chain of NbpSH3 SH3 (Saccharomyces cerevisiae) (Q12163 107-174): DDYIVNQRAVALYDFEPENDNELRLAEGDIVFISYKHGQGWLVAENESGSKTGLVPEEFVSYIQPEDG

Chain of Ste20 (Q03497 2-939): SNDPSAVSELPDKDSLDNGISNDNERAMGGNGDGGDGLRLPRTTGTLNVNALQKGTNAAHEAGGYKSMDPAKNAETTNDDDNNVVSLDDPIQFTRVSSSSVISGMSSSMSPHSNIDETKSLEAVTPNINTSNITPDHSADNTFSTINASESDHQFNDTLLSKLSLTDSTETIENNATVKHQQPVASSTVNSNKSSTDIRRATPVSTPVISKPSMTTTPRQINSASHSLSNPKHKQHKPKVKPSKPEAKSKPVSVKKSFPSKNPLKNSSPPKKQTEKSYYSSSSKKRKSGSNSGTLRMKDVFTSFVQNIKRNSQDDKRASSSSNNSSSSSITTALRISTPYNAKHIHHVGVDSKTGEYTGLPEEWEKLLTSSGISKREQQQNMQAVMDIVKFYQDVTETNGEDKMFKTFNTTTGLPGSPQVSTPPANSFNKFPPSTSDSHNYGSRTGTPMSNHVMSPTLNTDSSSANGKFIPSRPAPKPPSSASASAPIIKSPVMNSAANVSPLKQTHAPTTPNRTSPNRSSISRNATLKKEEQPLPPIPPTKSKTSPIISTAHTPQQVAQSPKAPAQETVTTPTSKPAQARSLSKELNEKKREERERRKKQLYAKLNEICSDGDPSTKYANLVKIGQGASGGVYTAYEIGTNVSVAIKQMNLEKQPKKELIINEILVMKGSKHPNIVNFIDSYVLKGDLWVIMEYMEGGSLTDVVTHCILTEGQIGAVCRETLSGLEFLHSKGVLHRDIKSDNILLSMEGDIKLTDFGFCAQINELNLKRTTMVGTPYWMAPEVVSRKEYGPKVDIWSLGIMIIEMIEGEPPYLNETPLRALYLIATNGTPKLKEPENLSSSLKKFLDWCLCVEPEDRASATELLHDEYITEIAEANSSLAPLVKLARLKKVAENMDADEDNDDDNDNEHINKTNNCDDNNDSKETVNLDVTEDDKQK

The Kd is the equilibrium constant for the complex coming apart. For the substance Ste20 (from UniProt Q03497), the Kd is 200 nM.
